Like-named read-outs stand apart in the source and are kept apart here.

Our source for the EC50 and Kd values is US20180305460A1 (Teva, published 2018).

The target in assay [1] is T1, Human CD38 on CD38-positive myeloma cells (ARP-1, H929) (human, UniProt P28907 43-300).
T1 construct: Endogenous CD38 on the human myeloma cell lines ARP-1 and H929, used in flow cytometry; also called NCI-H929
Description: flow cytometry, ARP-1 cells (CD38-positive).
Description: Antibodies purified from CHO cell supernatants were subsequently tested in flow cytometry-based binding assays to the CD38 positive cell line ARP-1.
(§1) The ability of the antibodies or antibody-interferon constructs to bind the human CD38-positive myeloma cell lines ARP-1 or H929 in flow cytometry-based assays was tested. ARP-1 cells or H929 cells (5×10⁵, as judged by trypan blue exclusion) were incubated with each protein or with a human IgG4 monoclonal antibody with irrelevant specificity protein construct at various concentrations in 50 μL of FACS buffer (PBS plus 1% fetal calf serum, FCS, 0.2M HEPES, 0.5M EDTA) in 96 well plates for 60 minutes on ice in the dark. Cells were washed three times with FACS buffer before incubation for 30 minutes in 50 μL of FACS buffer containing goat anti-human IgG (Fc-specific, conjugated to fluorescein isothiocyanate, FITC; Sigma-Aldrich, St. Louis, Mo.). After washing three times with FACS buffer, cells were fixed with 50 μL of PBS containing 4% formaldehyde v/v and incubated at 4° C. in the dark for 16 hours. Incubated cells in suspension were diluted with an additional 150 μL of FACS buffer and analyzed for binding by flow cytometry on a FACS Canto II (BD Biosciences, San Diego, Calif.) using forward scatter, side scatter and fluorescence intensity in the FITC channel. The value reported is the mean fluorescence intensity (MFI).

The target in assay [2] is T2, Human CD38 (human, UniProt P28907 43-300). Description: SPR (Biacore), antibody from supernatant captured on Protein A, human CD38 injected, 1:1 fit. In general terms: In SPR one partner is held on a chip, and binding of the other changes the refractive index at the surface.
Description: (§2) The capacity of anti-CD38 antibodies and anti-CD38-attenuated IFN fusion proteins to bind to human CD38 were measured using unpurified transfected cell supernatant prepared 7:1 with Non Specific Binding Reducer (GE Healthcare, Piscataway, N.J.). […] FC2 (or FC4) was used as a reference throughout the experiments. The experiments were run at 37° C. in HBS-P+ buffer (0.01 M HEPES, 0.15 M NaCl, 0.005% v/v Surfactant P20, pH 7.4). At a flow rate of 20 l/min, both flow cells were regenerated with 10 μL 50 mM sodium hydroxide before 40 μL supernatant containing the protein was passed over FC1 (or FC3) only. 301 μL of CD38 (10 g/mL in running buffer) or 30 μL running buffer was injected over FC1 and FC2 with a 5 minute dissociation time. Both surfaces were regenerated twice with sodium hydroxide. Results were generated using the BIAevaluation software provided with the machine. Microsoft Excel was used for calculations. BIAevaluation software automatically subtracted the reference sensorgram giving a trace of FC2-1 (or FC4-3) for each sample. A double reference was performed for each antibody tested by subtracting the sensorgram with a CD38 injection from the sensorgram with a blank running buffer injection. […] BIAevalution was used to fit the sensorgram using a Langmuir 1:1 equation in order to generate an equilibrium association constant (KD)
For assay [3], the target named is T2, Human CD38. The description is as above. The source holds these as a separate data set.
Description: as §2
Assay [4] has as its target T1, Human CD38 on CD38-positive myeloma …. Description: flow cytometry, ARP-1 cells (CD38-positive). The source holds these as a separate data set. (In general: In flow cytometry, cells or beads pass a laser one at a time.)
Description: These heavy chain variable regions were formatted on an IgG4 constant region containing an S228P substitution.
as §1
For assay [5] the target is unchanged. Description: flow cytometry, ARP-1 cells (CD38-positive). The source holds these as a separate data set.
Description: The ability of the antibodies or antibody-interferon constructs to bind the human CD38-positive myeloma cell lines ARP-1 or H929 in flow cytometry-based assays was tested. ARP-1 cells or H929 cells (5×10⁵, as judged by trypan blue exclusion) were incubated with each protein or with a human IgG4 monoclonal antibody with irrelevant specificity protein construct at various concentrations in 50 μL of FACS buffer (PBS plus 1% fetal calf serum, FCS, 0.2M HEPES, 0.5M EDTA) in 96 well plates for 60 minutes on ice in the dark. Cells were washed three times with FACS buffer before incubation for 30 minutes in 50 μL of FACS buffer containing goat anti-human IgG (Fc-specific, conjugated to fluorescein isothiocyanate, FITC; Sigma-Aldrich, St. Louis, Mo.). After washing three times with FACS buffer, cells were fixed with 50 μL of PBS containing 4% formaldehyde v/v and incubated at 4° C. in the dark for 16 hours. Incubated cells in suspension were diluted with an additional 150 μL of FACS buffer and analyzed for binding by flow cytometry on a FACS Canto II (BD Biosciences, San Diego, Calif.) using forward scatter, side scatter and fluorescence intensity in the FITC channel.

B1: X02.101 (antibody, V domains shown)
VH: QLQLQESGPGLVKPSETLSLTCTVSGGSISSSSYYWSWIRQHPGKGLEWIGYIYYSGSTNYNPSLKSRVTISVDTLKNQISLRLTSVTAADTAVYYCARVGGAGGWPMDVWGQGTTVTVSS
VL: QAVLTQPASLSASPGESARLTCTLPSDINVRYYNIYWYQQKPGSPPRYLLYYYSDSHKGQGSGVPSRFSGSKDASTNSGILLISGLQSEDEADYYCMTWSSNGSGVFGGGTQLTVLG
notes: IgG4 S228P with the X02.1 VH; VL V(66B)A relative to A02.1
With B1, the EC50 in assay [1] amounted to 13.7 µg/mL. The molecule further displayed a Kd with Human CD38 [2] of 0.0289 nM.

B2: X02.75 (antibody, human IgG4 S228P)
heavy: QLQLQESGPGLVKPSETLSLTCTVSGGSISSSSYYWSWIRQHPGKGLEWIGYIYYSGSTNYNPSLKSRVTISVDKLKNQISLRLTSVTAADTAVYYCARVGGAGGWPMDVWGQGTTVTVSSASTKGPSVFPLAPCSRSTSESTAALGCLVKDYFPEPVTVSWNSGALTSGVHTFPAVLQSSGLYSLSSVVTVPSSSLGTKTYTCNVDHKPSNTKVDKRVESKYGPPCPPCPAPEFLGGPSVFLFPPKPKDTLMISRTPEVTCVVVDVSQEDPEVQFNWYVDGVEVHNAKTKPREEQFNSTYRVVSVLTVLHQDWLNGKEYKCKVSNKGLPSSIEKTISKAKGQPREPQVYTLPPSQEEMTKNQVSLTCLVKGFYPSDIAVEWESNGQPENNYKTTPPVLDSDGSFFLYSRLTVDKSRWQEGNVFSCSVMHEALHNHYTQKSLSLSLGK
VL: QAVLTQPASLSASPGESARLTCTLPSDINVRYYNIYWYQQKPGSPPRYLLYYYSDSHKGQGSGVPSRFSGSKDVSTNSGILLISGLQSEDEADYYCMTWSSNGSGVFGGGTQLTVLG
notes: IgG4 S228P; VH T73K relative to X02.1
In the assay with Human CD38 [3], B2 displayed a Kd of 0.638 nM. In assay [4], this molecule registered an EC50 of 4.9 µg/mL.

B3: X02.72 (antibody, human IgG4 S228P)
heavy: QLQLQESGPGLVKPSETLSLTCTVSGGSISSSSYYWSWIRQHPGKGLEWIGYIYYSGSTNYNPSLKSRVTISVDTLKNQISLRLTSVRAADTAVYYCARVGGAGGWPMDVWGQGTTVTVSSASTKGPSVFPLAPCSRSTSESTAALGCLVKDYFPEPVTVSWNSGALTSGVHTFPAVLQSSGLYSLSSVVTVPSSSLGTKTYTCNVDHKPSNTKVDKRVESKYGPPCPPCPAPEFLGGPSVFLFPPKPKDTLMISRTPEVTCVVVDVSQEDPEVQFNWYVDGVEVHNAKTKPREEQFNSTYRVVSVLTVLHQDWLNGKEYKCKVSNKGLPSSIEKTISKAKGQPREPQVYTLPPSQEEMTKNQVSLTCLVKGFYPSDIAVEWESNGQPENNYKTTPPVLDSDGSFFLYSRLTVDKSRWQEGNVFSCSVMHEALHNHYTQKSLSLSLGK
VL: QAVLTQPASLSASPGESARLTCTLPSDINVRYYNIYWYQQKPGSPPRYLLYYYSDSHKGQGSGVPSRFSGSKDVSTNSGILLISGLQSEDEADYYCMTWSSNGSGVFGGGTQLTVLG
notes: IgG4 S228P; VH T83R relative to X02.1
In the assay with Human CD38 [3], B3 returned a Kd of 1.63 nM. Further, the midpoint of the response in assay [4], the EC50, lay at 3.6 µg/mL.

B4: X02.102 (antibody, V domains shown)
VH: QLQLQESGPGLVKPSETLSLTCTVSGGSISSSSYYWSWIRQHPGKGLEWIGYIYYSGSTNYNPSLKSRVTISVDTLKNQISLRLTSVTAADTAVYYCARVGGAGGWPMDVWGQGTTVTVSS
VL: QAVLTQPASLSASPGESARLTCTLPSDINVRYYNIYWYQQKPGSPPRYLLYYYSDSHKGQGSGVPSRFSGSKDVSANSGILLISGLQSEDEADYYCMTWSSNGSGVFGGGTQLTVLG
notes: IgG4 S228P with the X02.1 VH; VL T68A relative to A02.1
Take B4: in assay [1], a half-maximal response (EC50) required 20.4 µg/mL. In the assay with Human CD38 [2], this molecule had a Kd of 0.12 nM.

B5: X02.73 (antibody, human IgG4 S228P)
heavy: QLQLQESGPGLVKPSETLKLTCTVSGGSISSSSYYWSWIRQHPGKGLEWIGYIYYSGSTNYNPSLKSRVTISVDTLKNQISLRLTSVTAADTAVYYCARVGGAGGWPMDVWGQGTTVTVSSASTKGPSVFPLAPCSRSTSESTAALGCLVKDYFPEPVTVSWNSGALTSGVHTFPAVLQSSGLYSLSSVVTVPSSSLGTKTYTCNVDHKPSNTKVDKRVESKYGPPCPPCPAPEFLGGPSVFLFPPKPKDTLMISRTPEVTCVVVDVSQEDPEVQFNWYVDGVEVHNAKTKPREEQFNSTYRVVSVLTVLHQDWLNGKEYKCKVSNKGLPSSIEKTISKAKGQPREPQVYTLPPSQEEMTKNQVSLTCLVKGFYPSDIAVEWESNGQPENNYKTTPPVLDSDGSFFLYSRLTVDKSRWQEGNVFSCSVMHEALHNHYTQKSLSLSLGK
VL: QAVLTQPASLSASPGESARLTCTLPSDINVRYYNIYWYQQKPGSPPRYLLYYYSDSHKGQGSGVPSRFSGSKDVSTNSGILLISGLQSEDEADYYCMTWSSNGSGVFGGGTQLTVLG
notes: IgG4 S228P; VH S19K relative to X02.1
In the case of B5, binding in the assay with Human CD38 [3] was characterised by a dissociation constant (Kd) of 0.385 nM. In assay [4], a half-maximal response (EC50) required 4.3 µg/mL.

B6: X02.70 (antibody, human IgG4 S228P)
heavy: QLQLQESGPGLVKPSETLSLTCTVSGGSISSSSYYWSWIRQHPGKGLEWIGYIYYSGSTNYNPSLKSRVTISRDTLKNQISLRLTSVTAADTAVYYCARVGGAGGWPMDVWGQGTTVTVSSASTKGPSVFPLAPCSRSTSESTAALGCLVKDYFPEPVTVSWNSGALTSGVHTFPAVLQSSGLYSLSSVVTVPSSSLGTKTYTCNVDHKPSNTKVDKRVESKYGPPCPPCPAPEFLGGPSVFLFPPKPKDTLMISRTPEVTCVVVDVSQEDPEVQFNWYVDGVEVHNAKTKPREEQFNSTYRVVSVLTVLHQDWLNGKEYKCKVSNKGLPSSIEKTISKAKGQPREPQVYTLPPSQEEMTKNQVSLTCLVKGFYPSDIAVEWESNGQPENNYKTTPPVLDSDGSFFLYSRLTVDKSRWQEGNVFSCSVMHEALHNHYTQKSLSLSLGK
VL: QAVLTQPASLSASPGESARLTCTLPSDINVRYYNIYWYQQKPGSPPRYLLYYYSDSHKGQGSGVPSRFSGSKDVSTNSGILLISGLQSEDEADYYCMTWSSNGSGVFGGGTQLTVLG
notes: IgG4 S228P; VH V71R relative to X02.1
B6 returned a Kd in the assay with Human CD38 [3] of 3.54 nM. Further, in assay [4], a half-maximal response (EC50) required 7.2 µg/mL.

B7: X02.82 (antibody, V domains shown)
VH: QLQLQESGPGLVKPSETLSLTCTVSGGSISSSSYYWSWIRQHPGKGLEWIGYIYYSGSTNYNPSLKSRVTISVDTLKNQISLRLTSVTAADTAVYYCARVGGAGGWPMDVWGQGTTVTVSS
VL: QAVLTQPASLSASPGESARLTCTLPSDINVRYYNIYWYQQKPGSPPRYLLRYYSDSHKGQGSGVPSRFSGSKDVSTNSGILLISGLQSEDEADYYCMTWSSNGSGVFGGGTQLTVLG
notes: IgG4 S228P with the X02.1 VH; VL Y49R relative to A02.1
In assay [5], B7 showed an EC50 of 3.8 µg/mL.

B8: X02.96 (antibody)
heavy: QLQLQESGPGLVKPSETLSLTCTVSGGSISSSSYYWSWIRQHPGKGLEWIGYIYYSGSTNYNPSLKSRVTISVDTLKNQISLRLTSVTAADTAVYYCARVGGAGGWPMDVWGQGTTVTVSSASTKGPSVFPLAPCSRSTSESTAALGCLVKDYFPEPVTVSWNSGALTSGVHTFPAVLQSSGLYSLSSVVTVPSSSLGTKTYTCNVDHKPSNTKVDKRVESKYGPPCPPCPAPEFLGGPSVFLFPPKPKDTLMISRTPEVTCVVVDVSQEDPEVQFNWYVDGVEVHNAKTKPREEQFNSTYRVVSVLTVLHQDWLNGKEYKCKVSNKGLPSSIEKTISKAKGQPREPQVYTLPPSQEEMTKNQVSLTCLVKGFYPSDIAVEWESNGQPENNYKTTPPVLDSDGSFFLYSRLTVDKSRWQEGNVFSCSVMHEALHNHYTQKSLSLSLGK
VL: QAVLTQPPSLSASPGESARLTCTLPSDINVRYYNIYWYQQKPGSPPRYLLYYYSDSHKGQGSGVPSRFSGSKDVSTNSGILLISGLQSEDEADYYCMTWSSNGSGVFGGGTQLTVLG
notes: IgG4 S228P with the X02.1 VH; VL A8P relative to A02.1
In turn, B8 yielded an EC50 in assay [1] of 30 µg/mL. The molecule also displayed a Kd with Human CD38 [2] of 0.25 nM.

B9: X02.103 (antibody, V domains shown)
VH: QLQLQESGPGLVKPSETLSLTCTVSGGSISSSSYYWSWIRQHPGKGLEWIGYIYYSGSTNYNPSLKSRVTISVDTLKNQISLRLTSVTAADTAVYYCARVGGAGGWPMDVWGQGTTVTVSS
VL: QAVLTQPASLSASPGESARLTCTLPSDINVRYYNIYWYQQKPGSPPRYLLYYYSDSHKGQGSGVPSRFSGSKDVSTNTGILLISGLQSEDEADYYCMTWSSNGSGVFGGGTQLTVLG
notes: IgG4 S228P with the X02.1 VH; VL S70T relative to A02.1
In assay [1], B9 yielded a 50% effective concentration (EC50) of 9.4 µg/mL. The same molecule displayed a Kd with Human CD38 [2] of 1.28 nM.

Broadly, the EC50 is the concentration needed to bring the measured effect to its halfway point. A lower EC50 goes with higher potency in that assay. For orientation: Kd means the constant that tells how readily two partners part at equilibrium.
